# Molecular target: the molecule itself
# Experiment: SDS-PAGE of bicelle-reconstituted peptide
row,Protein,stoichiometry N
1,RNRLWLLTILVLLIPLVFIYRKYRKRKS [mouse Fas-TM (transmembrane domain peptide of mouse Fas)],3
2,"RSNLGWLSLLLLPIPLIVWVKRKEVQKT [human Fas-TM (transmembrane domain peptide of human Fas, C178S)]",3
